Data as given in patent US20080301824A1.

Columns and labels:
[1] = molecular target: GAL4 binding domain-parkin(1-465) fusion encoded by pGBT9-parkin(1-465) (UniProt P04386); assay: cell-based or functional assay
[2] = molecular target: GFP-syt11 (GFP-tagged full-length human synaptotagmin XI) (human) [GFP: P42212]; assay: co-IP with anti-HA agarose from HEK293 cells, anti-GFP blot

Substance | β-galactosidase activity in yeast two-hybrid liquid assay, against pGAD10-hsyt11AB with pGBT9 vector control [1] | fold less interaction than parkinC418R [2]
GAL4 activation domain-hsyt11AB fusion encoded by pGAD10-hsyt11AB (human synaptotagmin 11, domains C2A and C2B) (from UniProt Q9BT88 157-431) | 20 fold | –
HA-tagged parkin with missense mutation C289G (from UniProt O60260 1-465) (enzyme) | – | 2.5 fold less
